Patent US20230060388A1

Columns and labels:
[1] = biological target: recombinant human TIGIT extracellular domain (ECD) (human) (UniProt Q495A1); assay: ELISA on recombinant human TIGIT ECD
[2] = biological target: recombinant cynomolgus TIGIT (cynomolgus monkey); assay: ELISA on recombinant cyno-TIGIT
[3] = biological target: human TIGIT expressed on cells (stably transfected Jurkat cells) (human) (UniProt Q495A1); assay: cell-based or functional assay
[4] = biological target: human TIGIT expressed on cells (stably transfected Jurkat cells) (human) (UniProt Q495A1); assay: flow cytometry on h-TIGIT transfected Jurkat cells (whole cell binding), Alexa Fluor 488; representative of three experiments
[5] = biological target: human TIGIT expressed on cells (stably transfected Jurkat cells) (human) (UniProt Q495A1); assay: whole cell binding, flow cytometry, n=3 (FIG. 10A)
[6] = biological target: recombinant mouse TIGIT (mouse) (UniProt P86176); assay: ELISA on recombinant mouse-TIGIT
recombinant mouse TIGIT (mouse), sequence (P86176 29-148 limits assumed): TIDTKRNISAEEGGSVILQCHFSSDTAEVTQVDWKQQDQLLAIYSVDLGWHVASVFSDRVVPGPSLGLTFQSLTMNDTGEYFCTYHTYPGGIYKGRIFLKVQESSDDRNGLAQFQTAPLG

human TIGIT expressed on cells (stably transfected Jurkat cells) (human), sequence (Q495A1 22-244 limits assumed): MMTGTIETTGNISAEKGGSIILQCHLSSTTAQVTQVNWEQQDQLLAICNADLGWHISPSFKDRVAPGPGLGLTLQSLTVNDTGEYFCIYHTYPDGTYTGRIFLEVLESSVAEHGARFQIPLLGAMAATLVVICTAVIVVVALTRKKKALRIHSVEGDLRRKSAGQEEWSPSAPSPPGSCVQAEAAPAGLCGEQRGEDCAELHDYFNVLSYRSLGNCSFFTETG
recombinant human TIGIT extracellular domain (ECD) (human), sequence (Q495A1 22-138 limits assumed): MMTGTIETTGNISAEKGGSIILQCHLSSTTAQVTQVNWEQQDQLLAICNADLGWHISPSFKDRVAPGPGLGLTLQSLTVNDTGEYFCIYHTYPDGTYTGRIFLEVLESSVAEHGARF

EC50 (read off the curve) [1] [µg/mL]	EC50 (read off the curve) [2] [µg/mL]	EC50, NFAT luciferase reporter assay (n=3) [3] [nM]	EC50 (read off the curve) [4] [nM]	EC50 [5] [nM]	EC50 (read off the curve) [6] [µg/mL]	Substance
0.1	0.1	0.72	0.5	0.61		Reference Ab 2 (same amino acid sequences as Tiragolumab) (antibody)
					0.08	anti-mouse TIGIT reference antibody (Biolegend #142101)
